B1: Chromodomain-helicase-DNA-binding protein 4, residues 365 to 417; numbered along this chain, Q14839 (parent)
chain: YETDHQDYCEVCQQGGEIILCDTCPRAYHMVCLDPDMEKAPEGKWSCPHCEKE
B2: Transcription elongation factor A N-terminal and central domain-containing protein, residues 30 to 77; numbered along this chain, Q8N8B7 (parent)
chain: LTELETIYVTKEHLQETDVVRAVYRVLKNCPSVALKKKAKCLLSKWKA

± gives the uncertainty stated by the source.

One data set covers variants of B1. Description: abundance fitness (aPCA) (normalised: wild type 0, dead -1); higher = more abundant; growth selection in yeast, the domain comes from the species named. Particulars: Homo sapiens.
Consider G15S, for which the abundance fitness was -0.013 ± 0.11.

As to G15T, the abundance fitness was -0.003 ± 0.14.

As to G15A, the abundance fitness was -0.028 ± 0.12.

G15L: the abundance fitness was -0.052 ± 0.12.

For G15D, the abundance fitness turned out to be 0.176 ± 0.14.

For G15C, the abundance fitness is -0.524 ± 0.17.

As for G15P, the abundance fitness was -0.136 ± 0.23.

Take G15Y: the abundance fitness was -0.571 ± 0.23.

For the variant G15R, the abundance fitness stood at 0.075 ± 0.095.

On to G15I, for which the abundance fitness was -0.664 ± 0.33.

Consider G15M, for which the abundance fitness is -0.028 ± 0.18.

On to G15K, for which the abundance fitness was -0.033 ± 0.25.

In the case of G15E, the abundance fitness is -0.162 ± 0.12.

For the variant C12G, the abundance fitness was -0.799 ± 0.1.

Turning to C12K, the abundance fitness is -0.775 ± 0.17.

As to C12L, the abundance fitness is -0.962 ± 0.11.

Consider C12E, for which the abundance fitness is -0.683 ± 0.12.

On to C12H, for which the abundance fitness is -0.948 ± 0.45.

Consider C12V, for which the abundance fitness is -0.887 ± 0.1.

Turning to C12F, the abundance fitness was -0.529 ± 0.37.

Turning to C12W, the abundance fitness was -0.948 ± 0.13.

With C12M, the abundance fitness was -0.643 ± 0.14.

With C12N, the abundance fitness is -0.605 ± 0.28.

For C12I, the abundance fitness was -0.342 ± 0.23.

For C12S, the abundance fitness was -0.977 ± 0.12.

Take C12Y: the abundance fitness is -1.07 ± 0.15.

In the case of C12A, the abundance fitness was -0.952 ± 0.13.

For C12R, the abundance fitness was -0.87 ± 0.1.

Regarding C12Q, the abundance fitness was -0.49 ± 0.27.

Turning to C12D, the abundance fitness was -0.944 ± 0.28.

For C12T, the abundance fitness is -0.46 ± 0.13.

As for C9R, the abundance fitness is -0.678 ± 0.11.

In the case of C9P, the abundance fitness is -0.712 ± 0.16.

Regarding C9T, the abundance fitness is -0.791 ± 0.14.

As to C9Y, the abundance fitness is -1.02 ± 0.12.

In the case of C9V, the abundance fitness is -1.01 ± 0.11.

Turning to C9G, the abundance fitness is -0.825 ± 0.094.

As to C9A, the abundance fitness is -0.929 ± 0.11.

As to C9F, the abundance fitness was -1.09 ± 0.21.

Regarding C9D, the abundance fitness is -0.777 ± 0.16.

C9Q: the abundance fitness was -0.845 ± 0.14.

C9H: the abundance fitness was -0.739 ± 0.22.

On to C9S, for which the abundance fitness is -0.676 ± 0.099.

C9I: the abundance fitness was -0.868 ± 0.17.

On to C9M, for which the abundance fitness was -0.562 ± 0.14.

As to C9L, the abundance fitness was -0.717 ± 0.096.

For the variant C9E, the abundance fitness was -0.943 ± 0.15.

As for Q14E, the abundance fitness was found to be 0.223 ± 0.28.

In the case of Q14F, the abundance fitness came out at 0.06 ± 0.14.

Q14W: the abundance fitness was -0.342 ± 0.13.

For the variant Q14L, the abundance fitness was -0.347 ± 0.11.

On to Q14H, for which the abundance fitness is -0.23 ± 0.26.

Take Q14G: the abundance fitness was -0.013 ± 0.11.

In the case of Q14P, the abundance fitness was -0.826 ± 0.19.

For Q14I, the abundance fitness is -0.084 ± 0.15.

On to Q14C, for which the abundance fitness was -0.337 ± 0.12.

Turning to Q14K, the abundance fitness stood at 0.002 ± 0.16.

Turning to Q14S, the abundance fitness is -0.239 ± 0.095.

With Q14Y, the abundance fitness is -0.338 ± 0.23.

On to Q14A, for which the abundance fitness is -0.307 ± 0.17.

For Q14N, the abundance fitness was -0.362 ± 0.16.

Q14R: the abundance fitness is 0.162 ± 0.083.

For the variant H5S, the abundance fitness was 0.224 ± 0.099.

For the variant H5M, the abundance fitness came to 0.41 ± 0.12.

Take H5D: the abundance fitness was -0.801 ± 0.18.

As for H5R, the abundance fitness stood at 0.193 ± 0.086.

Take H5W: the abundance fitness was -0.23 ± 0.12.

H5Q: the abundance fitness is -0.111 ± 0.15.

For the variant H5P, the abundance fitness worked out at 0.19 ± 0.13.

Take H5A: the abundance fitness was determined as 0.283 ± 0.098.

For H5N, the abundance fitness turned out to be 0.12 ± 0.15.

In the case of H5K, the abundance fitness was -0.044 ± 0.15.

As for H5C, the abundance fitness was -0.083 ± 0.27.

As for H5F, the abundance fitness is -0.059 ± 0.19.

As for H5V, the abundance fitness is 0.208 ± 0.088.

With H5I, the abundance fitness came out at 0.092 ± 0.15.

Take H5T: the abundance fitness stood at 0.349 ± 0.13.

Turning to H5G, the abundance fitness is 0.158 ± 0.081.

Regarding D4C, the abundance fitness amounted to 0.071 ± 0.1.

For D4T, the abundance fitness is -0.168 ± 0.11.

On to D4S, for which the abundance fitness is -0.127 ± 0.11.

Regarding D4W, the abundance fitness is -0.173 ± 0.1.

In the case of D4K, the abundance fitness amounted to 0.23 ± 0.17.

D4I: the abundance fitness was -0.089 ± 0.13.

Regarding D4F, the abundance fitness was -0.031 ± 0.16.

Turning to D4H, the abundance fitness came to 0.304 ± 0.29.

D4Y: the abundance fitness worked out at 0.004 ± 0.23.

In the case of D4A, the abundance fitness is -0.066 ± 0.093.

As to D4M, the abundance fitness was 0.299 ± 0.13.

D4N: the abundance fitness was -0.114 ± 0.17.

Turning to D4L, the abundance fitness was -0.003 ± 0.091.

On to D4E, for which the abundance fitness was 0.1 ± 0.11.

As to D4Q, the abundance fitness is 0.114 ± 0.14.

For the variant D4G, the abundance fitness was found to be 0.008 ± 0.077.

As to D7F, the abundance fitness was -0.544 ± 0.26.

In the case of D7I, the abundance fitness was -0.458 ± 0.22.

For the variant D7H, the abundance fitness is -0.51 ± 0.48.

As for D7Q, the abundance fitness came out at 0.119 ± 0.19.

Take D7W: the abundance fitness was -0.346 ± 0.14.

D7P: the abundance fitness is -0.29 ± 0.24.

Regarding D7N, the abundance fitness was -0.183 ± 0.11.

In the case of D7E, the abundance fitness was determined as 0.015 ± 0.11.

On to D7V, for which the abundance fitness was -0.19 ± 0.11.

Take D7S: the abundance fitness worked out at 0.037 ± 0.12.

For D7M, the abundance fitness was -0.037 ± 0.19.

In the case of D7A, the abundance fitness was -0.095 ± 0.1.

As for D7G, the abundance fitness was 0 ± 0.092.

D7K: the abundance fitness is -0.075 ± 0.2.

With D7R, the abundance fitness was -0.005 ± 0.11.

With D7C, the abundance fitness was -1.06 ± 0.33.

As for D7Y, the abundance fitness is -0.003 ± 0.21.

D7T: the abundance fitness turned out to be 0.067 ± 0.15.

The next data set covers variants of B2. Described as above. Particulars: Homo sapiens.
As to LTELETIYVTKEHLQETTVVRAVYRVLKNCPSVALKKKAKCLLSKWKA [D18T], the abundance fitness is 0.158 ± 0.1.

Take LTELETIYVTKEHLQETDVVIAVYRVLKNCPSVALKKKAKCLLSKWKA [R21I]: the abundance fitness was -1.03 ± 0.3.

LTELETIYVTKEHLQETDVVDAVYRVLKNCPSVALKKKAKCLLSKWKA [R21D]: the abundance fitness is -0.759 ± 0.27.

Consider LTELETIYPTKEHLQETDVVRAVYRVLKNCPSVALKKKAKCLLSKWKA [V9P], for which the abundance fitness was -0.027 ± 0.13.

Turning to LTELETIYSTKEHLQETDVVRAVYRVLKNCPSVALKKKAKCLLSKWKA [V9S], the abundance fitness worked out at 0.085 ± 0.085.

For the variant LTELETIYVTKEHLQETDVVRAVYRVLWNCPSVALKKKAKCLLSKWKA [K28W], the abundance fitness was found to be 0.04 ± 0.092.

As to LTELETIYVTKEHLQETDVVRAVYRVLANCPSVALKKKAKCLLSKWKA [K28A], the abundance fitness was -0.509 ± 0.09.

With LTELETIYVTKEHLQETDVVRAVRRVLKNCPSVALKKKAKCLLSKWKA [Y24R], the abundance fitness was found to be 0.277 ± 0.066.

In the case of LTVLETIYVTKEHLQETDVVRAVYRVLKNCPSVALKKKAKCLLSKWKA [E3V], the abundance fitness is -0.102 ± 0.081.

For LTELMTIYVTKEHLQETDVVRAVYRVLKNCPSVALKKKAKCLLSKWKA [E5M], the abundance fitness was -0.643 ± 0.11.

For LTELETIYVTKEHLQETDVVRAVYRVLKNCPSVALKKKAKCLKSKWKA [L43K], the abundance fitness is -1.04 ± 0.24.

On to LTELETIYVTKEHLQETDVVRAVYRVLKNCPSVALKKKAKCLLSKCKA [W46C], for which the abundance fitness was -0.313 ± 0.12.

Regarding LTELETIYVTKEHLQETDVVRAVYRVLKNCPSVALKKKAKCLLSKIKA [W46I], the abundance fitness worked out at 0.258 ± 0.17.

In the case of LTELETIYVTKEHLQETDVVRAVYRVLKNCPSVALKNKAKCLLSKWKA [K37N], the abundance fitness is -0.155 ± 0.17.

In the case of LTELETIYVTKEHLQETDVVRAVYRVLKNCPSVALGKKAKCLLSKWKA [K36G], the abundance fitness is -0.109 ± 0.062.

For LTELETIYVTKEHLQWTDVVRAVYRVLKNCPSVALKKKAKCLLSKWKA [E16W], the abundance fitness was -0.414 ± 0.15.

As to LTEAETIYVTKEHLQETDVVRAVYRVLKNCPSVALKKKAKCLLSKWKA [L4A], the abundance fitness came to 0.17 ± 0.083.

LTELETDYVTKEHLQETDVVRAVYRVLKNCPSVALKKKAKCLLSKWKA [I7D]: the abundance fitness amounted to 0.203 ± 0.087.

As for LTELETIYVTKEHLQETDVVRAVYRVLKNCPSFALKKKAKCLLSKWKA [V33F], the abundance fitness is 0.427 ± 0.33.

Regarding LTELETIYVTNEHLQETDVVRAVYRVLKNCPSVALKKKAKCLLSKWKA [K11N], the abundance fitness is -0.627 ± 0.24.

In the case of LTELETIYVTKEHLQETDVVRHVYRVLKNCPSVALKKKAKCLLSKWKA [A22H], the abundance fitness is -0.328 ± 0.15.

As for LTELETIYVTKAHLQETDVVRAVYRVLKNCPSVALKKKAKCLLSKWKA [E12A], the abundance fitness is -0.492 ± 0.099.

Take LTELETIYVTKEHLQETDVVRAVYTVLKNCPSVALKKKAKCLLSKWKA [R25T]: the abundance fitness is -0.528 ± 0.13.

Take LTELETIYVTKEHLQETDVVRAVYEVLKNCPSVALKKKAKCLLSKWKA [R25E]: the abundance fitness is -0.743 ± 0.15.

LTELETIYVTKEHLQETDVVRAVYWVLKNCPSVALKKKAKCLLSKWKA [R25W]: the abundance fitness was -0.837 ± 0.19.

As to LTELETIYVTKEHLKETDVVRAVYRVLKNCPSVALKKKAKCLLSKWKA [Q15K], the abundance fitness amounted to 0.209 ± 0.093.

Regarding LTELETIYVTKEELQETDVVRAVYRVLKNCPSVALKKKAKCLLSKWKA [H13E], the abundance fitness was 0.262 ± 0.12.

The values are drawn from the Human Domainome abundance scans (Beltran et al. 2025).
